Test results from patent US20250026823A1 (MERUS N V, published 2025).
Numbering of substitutions follows the chain as printed. One block for each binder: values may come before it.

Experiments:
[1] = molecular target: T1, extracellular domain of CLEC12A (amino acids 75 to 275) coupled to a His-tag (Sino Biological, cat.no. … (UniProt Q5QGZ9-1 75-275)); experiment: ELISA, extracellular domain of CLEC12A coated at 2 µg/ml
T1 construct: range 75-275; Bought protein; also called coated CLEC12A; isolated extracellular domain of CLEC12A; not shown: His-tag
T1 sequence (looked up): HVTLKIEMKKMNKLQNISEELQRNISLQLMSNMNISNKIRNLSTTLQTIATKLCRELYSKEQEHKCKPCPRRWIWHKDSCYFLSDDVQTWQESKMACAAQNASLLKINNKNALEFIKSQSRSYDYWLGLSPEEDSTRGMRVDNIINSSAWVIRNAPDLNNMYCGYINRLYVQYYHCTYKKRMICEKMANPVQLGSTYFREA

[2] = molecular target: T2, CLEC12A expressed on cells (CLEC12A-transfected CHO cells; HL60 cells) (UniProt Q5QGZ9 1-265, limits assumed); experiment: flow cytometry on HL60 cells, optimized IgG concentration
T2 construct: whole, on cells; also called cell-expressed CLEC12A
T2 sequence (looked up): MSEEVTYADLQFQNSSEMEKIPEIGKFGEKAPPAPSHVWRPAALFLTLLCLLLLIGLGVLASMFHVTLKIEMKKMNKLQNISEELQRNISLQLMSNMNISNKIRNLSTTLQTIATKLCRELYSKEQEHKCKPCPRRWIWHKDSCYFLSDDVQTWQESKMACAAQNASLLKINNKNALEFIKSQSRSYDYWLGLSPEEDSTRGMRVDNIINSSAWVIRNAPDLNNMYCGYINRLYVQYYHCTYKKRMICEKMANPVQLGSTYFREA

[3] = molecular target: T2, CLEC12A expressed on cells …; experiment: cell-based or functional assay
[4] = molecular target: T2, CLEC12A expressed on cells …; experiment: flow cytometry on CLEC12A-transfected CHO cells

optical density [1]: 1.31 | mean fluorescent intensity [2]: 1560
B1: 4327 CLEC12A IgG (antibody, V domains shown)
VH: QVQLVQSGAEVKKPGASVKVSCKASGYTFTSYYMHWVRQAPGQGLEWMGIINPSGGSTSYAQKFQGRVTMTRDTSTSTVYMELSSLRSEDTAVYYCAKGTTGDWFDYWGQGTLVTVSS
VL: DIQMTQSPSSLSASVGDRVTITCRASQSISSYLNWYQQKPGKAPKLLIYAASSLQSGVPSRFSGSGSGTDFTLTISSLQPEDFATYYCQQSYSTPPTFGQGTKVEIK
notes: Full length human IgG1

optical density [1]: 1.33 | mean fluorescent intensity [2]: 1110
B2: 4331 CLEC12A IgG (antibody, V domains shown)
VH: B1 VH with Q1E, K98R, T100N, T101Y, W104E
VL: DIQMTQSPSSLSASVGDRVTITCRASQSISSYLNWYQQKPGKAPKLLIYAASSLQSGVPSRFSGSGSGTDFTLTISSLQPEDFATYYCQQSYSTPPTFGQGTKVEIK
notes: Full length human IgG1

lysis of HL60 cells by AML patient derived T-cells (percentage of specific lysis relative to IgG) [3]: 68% | lysis of HL60 cells by healthy donor T cells (percentage of specific lysis relative to IgG) [3]: 69%
B3: CD3XCLEC12A bsAb (3056x3116) with DM-Fc (bispecific antibody, V domains shown)
VH 1: QVQLVQSGGGVVQPGRSLRLSCVASGFTFSSYGMHWVRQAPGKGLEWVAAIWYNGRKQDYADSVKGRFTISRDNSKNTLYLQMNSLRAEDTAVYYCTRGTGYNWFDPWGQGTLVTVSS
VH 2: QVQLQESGPGLVKPSETLSLTCVVSGGSISSSNWWSWVRQPPGKGLEWIGEIYHSGSPDYNPSLKSRVTISVDKSRNQFSLKLSSVTAADTAVYYCAKVSTGGFFDYWGQGTLVTVSS
VL: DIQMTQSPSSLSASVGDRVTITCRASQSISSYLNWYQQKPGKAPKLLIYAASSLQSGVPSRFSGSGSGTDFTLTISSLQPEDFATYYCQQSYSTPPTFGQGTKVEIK

mean fluorescent intensity [4]: 282
B4: CD3 monospecific antibody (3056x3056) (antibody, V domains shown)
VH: B3 VH 1
VL: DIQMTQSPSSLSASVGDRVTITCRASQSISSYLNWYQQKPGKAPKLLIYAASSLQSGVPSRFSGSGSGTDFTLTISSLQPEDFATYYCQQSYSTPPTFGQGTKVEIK
notes: Full length bivalent monoclonal IgG; also called CD3 IgG

mean fluorescent intensity [4]: 5300
B5: candidate 3056x3116 CD3xCLEC12A bispecific IgG1 (bispecific antibody, V domains shown)
VH 1: B3 VH 1
VH 2: B3 VH 2
VL: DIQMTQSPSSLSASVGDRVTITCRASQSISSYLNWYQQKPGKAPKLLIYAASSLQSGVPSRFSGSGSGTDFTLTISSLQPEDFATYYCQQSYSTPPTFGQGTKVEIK
notes: Full length human IgG1 with wild type Fc and a common huVk1-39 light chain; The heavy chains were heterodimerised by known methods (Gunasekaran et al; WO2009/089004); also called CD3XCLEC12A WT Fc IgG1

mean fluorescent intensity [4]: 4150 | optical density [1]: 1.42 | mean fluorescent intensity [2]: 1470
B6: CLEC12A monospecific antibody (3116x3116) (antibody, V domains shown)
VH: B3 VH 2
VL: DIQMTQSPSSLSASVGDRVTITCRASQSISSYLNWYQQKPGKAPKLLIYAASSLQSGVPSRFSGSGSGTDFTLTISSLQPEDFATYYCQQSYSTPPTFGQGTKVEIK
notes: Bivalent IgG; also called CLEC12A benchmark antibody; CLEC12A benchmark IgG
